From EP1906184A1 (KYOWA HAKKO KOGYO CO., LTD., dated 2008)
Where a chain is given by its changes, count along the chain named.

B1: anti-human VEGF receptor Flt-1 mouse monoclonal antibody KM1732 (antibody, V domains shown)
VH: QGQMQQSGAELVKPGASVKLSCKPSGFTFSSNYISWLKQKPGQSLEWIAWIYAGTGDASYNQKFTAKAHVTVDTSSSTAYMQLSSLTTEDSAIYYCARHGGDGYWFAYWGQGTLVTVSA
VL: QLVLTQSPAIMSASQGEKVTMTCSASSSVSYMHWYQQKSGTSPKRWIYDTSKLPSGVPARFSGSGSGTSYSLTISSMEAEDAATYYCQQWSSNPPTFGAGTKLELK
notes: Mouse IgG1 from hybridoma KM1732 (FERM BP-5698); also called anti-human Flt-1 monoclonal antibody KM1732
B2: anti-human VEGF receptor Flt-1 mouse monoclonal antibody KM1750 (antibody, V domains shown)
VH: QAFLQQSGAELVRPGASVKMSCKASGYTFINYNMHWVKQTPRQGLEWIGAIFPGNGFTSYNQKFKGKATLTVDKSSSTVYMQLRSLTSEDSAVYFCARDGDYYFDYWGQGTTLTVSS
VL: QIVLTQSPAIMSASLGEEITLTCSASSSVSYMHWYQQKSGTSPKLLIYRTSNLASGVPFRFSGSGSGTFYSLTISSVEAEDAADYYCHQWSMYTFGGGTKLEIK
notes: Mouse IgG2b from hybridoma KM1750 (FERM BP-5700)
B3: anti-human VEGF receptor Flt-1 human CDR-grafted antibody KM8550 (antibody, V domains shown)
VH: QVQLVQSGAEVKKPGASVKVSCKASGYTFINYNMHWVRQAPGQGLEWMGAIFPGNGFTSYNQKFKGRVTITVDKSTSTAYMELSSLRSEDTAVYYCARDGDYYFDYWGQGTLVTVSS
VL: DIQMTQSPSSLSASVGDRVTITCSASSSVSYMHWYQQKPGKAPKLLIYRTSNLASGVPSRFSGSGSGTDFTLTISSLQPEDFATYYCHQWSMYTFGQGTKVEIK
notes: Human CDR-grafted IgG; also called 1750HV0 + 1750LV0(I); pKANTEX1750HV0LV0(I)
B4: anti-human VEGF receptor Flt-1 human CDR-grafted antibody KM8551 (antibody, V domains shown)
VH: B3 VH
VL: DIVMTQSPDSLAVSLGERATINCSASSSVSYMHWYQQKPGQPPKLLIYRTSNLASGVPDRFSGSGSGTDFTLTISSLQAEDVAVYYCHQWSMYTFGQGTKVEIK
notes: Human CDR-grafted IgG; also called 1750HV0 + 1750LV0(IV); pKANTEX1750HV0LV0(IV)
B5: anti-human VEGF receptor Flt-1 human CDR-grafted antibody KM8555 (antibody, V domains shown)
VH: B3 VH with E82Q, S84R, Y95F
VL: B3 VL with D17E, R18E, D69F, F70Y
notes: Human CDR-grafted IgG with modified FR in VH and VL; also called 1750HV3 + 1750LV4; pKANTEX1750HV3LV4
B6: anti-human VEGF receptor Flt-1 human CDR-grafted antibody KM8554 (antibody, V domains shown)
VH: B3 VH
VL: B3 VL with D17E, R18E, D69F, F70Y
notes: Human CDR-grafted IgG with modified FR in VL; also called 1750HV0 + 1750LV4; pKANTEX1750HV0LV4
B7: anti-human VEGF receptor Flt-1 human CDR-grafted antibody KM8553 (antibody, V domains shown)
VH: B3 VH with E82Q, S84R, Y95F
VL: B4 VL
notes: Human CDR-grafted IgG with modified FR in VH; also called 1750HV3 + 1750LV0(IV); pKANTEX1750HV3LV0(IV)
B8: anti-human VEGF receptor Flt-1 human CDR-grafted antibody KM8552 (antibody, V domains shown)
VH: B3 VH with E82Q, S84R, Y95F
VL: B3 VL
notes: Human CDR-grafted IgG with modified FR in VH; also called 1750HV3 + 1750LV0(I); pKANTEX1750HV3LV0(I)
B9: anti-human VEGF receptor Flt-1 human chimeric antibody KM2532 (antibody, V domains shown)
VH: B1 VH
VL: B1 VL
B10: anti-human VEGF receptor Flt-1 human chimeric antibody KM2550 (antibody, V domains shown)
VH: B2 VH
VL: B2 VL

Molecular target: T1, soluble human VEGF receptor KDR 7N (human, UniProt P35968 20-757)
T1 construct: range 1-738; The range 1-738 counts on the mature protein, not on the precursor; Expressed in High Five insect cells (purity 70 to 80%); not shown: two amino acid residues derived from a linker
T1 sequence (P35968 20-757): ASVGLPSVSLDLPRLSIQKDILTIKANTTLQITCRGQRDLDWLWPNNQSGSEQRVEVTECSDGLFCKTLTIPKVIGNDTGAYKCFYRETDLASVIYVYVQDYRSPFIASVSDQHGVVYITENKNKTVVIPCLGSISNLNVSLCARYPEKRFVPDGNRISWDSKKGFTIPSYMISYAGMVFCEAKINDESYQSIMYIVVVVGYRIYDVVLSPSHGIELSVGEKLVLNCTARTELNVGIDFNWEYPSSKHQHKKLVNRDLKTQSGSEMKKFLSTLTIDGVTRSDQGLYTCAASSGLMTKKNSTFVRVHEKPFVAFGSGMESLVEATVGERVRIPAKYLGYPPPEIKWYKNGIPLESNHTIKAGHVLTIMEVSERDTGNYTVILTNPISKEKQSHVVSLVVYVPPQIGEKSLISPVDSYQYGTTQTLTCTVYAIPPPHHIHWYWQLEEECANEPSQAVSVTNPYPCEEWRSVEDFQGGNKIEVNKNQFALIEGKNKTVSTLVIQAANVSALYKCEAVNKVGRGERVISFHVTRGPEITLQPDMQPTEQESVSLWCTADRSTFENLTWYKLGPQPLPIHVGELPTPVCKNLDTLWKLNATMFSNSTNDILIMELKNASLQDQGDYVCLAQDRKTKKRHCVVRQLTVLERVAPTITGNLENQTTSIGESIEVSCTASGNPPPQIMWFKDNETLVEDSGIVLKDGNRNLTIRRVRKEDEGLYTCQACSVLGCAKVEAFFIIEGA
Assay: ELISA, receptor coated at 4 µg/ml

binding result | Binder
no binding (tested: 0.1 µg/ml) | B1
no binding (tested: 0.1 µg/ml) | B2

Molecular target: T1, soluble human VEGF receptor KDR 7N
Assay: ELISA, receptor coated at 10 µg/ml (3-fold dilutions)

binding result | Binder
no binding (tested: 5 µg/ml) | B3
no binding (tested: 5 µg/ml) | B4
no binding (tested: 5 µg/ml) | B5
no binding (tested: 5 µg/ml) | B6
no binding (tested: 5 µg/ml) | B7
no binding (tested: 5 µg/ml) | B8

Molecular target: T1, soluble human VEGF receptor KDR 7N
Assay: ELISA, receptor coated at 4 µg/ml, antibody concentration varied

binding result | Binder
no binding (tested: 0.0152 to 100 ng/ml) | B9
no binding (tested: 0.0152 to 100 ng/ml) | B10
